Results on two molecules are retold here after US10973882B2, “Methods for reducing severity of pulmonary fibrosis” (CEDARS-SINAI MEDICAL CENTER, priority 2017, dated 2021).

One assay has as its system CD24^−Sca-1^−AEC2s. The assay is described as follows: 3D Matrigel organoid culture, colony-forming efficiency (CFE) of mouse AEC2s. The class given is cell-based. As to the method: Flow-sorted mouse CD24^−Sca-1^−AEC2s or human HTII-280^+AEC2s were cultured in Matrigel/medium (1:1) mixture in the presence of MLg2908 lung fibroblast cells (Barkauskas et al., 2013; Chen et al., 2012). 100 μl Matrigel/medium mix containing 3×10^3 type 2 cells and 2×10^5 MLg2908 cells were plated into each 0.4-μm Transwell insert of a 24-well plate. 400 μl of medium was added in the lower chambers. Medium was described previously (Chen et al., 2012). Matrigel was from BD Biosciences (catalog 354230). Fresh medium was changed every other day. Cultures were maintained in a humidified 37° C. and 5% CO2 incubator. Colonies were visualized with a Zeiss Axiovert40 inverted fluorescent microscope (Carl Zeiss AG, Oberkochen, Germany). The number of colonies with a diameter of ≥50 μm from each insert was counted, and the colony-forming efficiency (CFE) was determined by the number of colonies in each culture as a percentage of the number of input epithelial cells at day 12 after plating.
For culture with IL-6 protein or anti-IL-6, sorted type 2 cells were pretreated with IL-6 protein or anti-IL-6 at room temperature for 30 minutes. Type 2 cells were then mixed with fibroblasts in the Matrigel/medium mixture and plated into Transwell inserts. The same concentration of IL-6 protein or IL-6 antibody was added into the Matrigel/medium mix and into the medium placed in the lower chambers.
Healon GV was purchased from Abbott Medical Optics (Abbot Park, Ill.). Pep-1 was synthesized by Sigma-Genosys and dissolved in DMSO to form a 100 μg/μl stock solution as described previously (Jiang et al., 2005; Mummert et al., 2000). For 3D matrigel culture, sorted type 2 cells were pretreated with Healon (200 μg/ml) or pep-1 (125 μg/ml) at room temperature for 30 minutes. Higher concentrations of Healon (400 μg/ml, 600 μg/ml, and 800 μg/ml) were used for 3D matrigel culture of IPF AEC2s. Cells were then mixed with fibroblasts in Matrigel/medium mix and plated into Transwell inserts. The same concentrations of Healon or Pep-1 were added into the Matrigel/medium mix and medium that were placed in the lower chambers.
The cell-permeable STAT3 inhibitor S3I-201 was purchased from Santa Cruz Biotechnology (Dallas, Tex.) and dissolved in DMSO to form stock solution of 10 mg/ml (MW 365.36). The dose for treating type 2 cells in colony-formation assays was 50 μM and 100 μM. The same amounts of DMSO were added into the control wells. Flow-sorted type 2 cells were pretreated with the STAT3 inhibitor at 50 μM or 100 μM concentrations, and with IL-6 protein (100 ng/ml), at room temperature for 30 minutes. Cells were then mixed with fibroblasts in Matrigel/medium mix and plated into Transwell inserts. […]

In a further assay the test system is human HTII-280^+AEC2s. The assay is described as follows: 3D matrigel culture, colony-forming efficiency (CFE) of human AEC2s. It counts as cell-based. The note with it: AEC2s sorted from diseased (IPF) lung; rIL-6 200 ng/ml vs medium without exogenous IL-6; FIG. 13H. As to the method:
(§1) Recombinant mouse IL-6 protein (Catalog 406-ML/CF, R&D Systems) was supplied in 50 mM sodium acetate and 1 mM EDTA and was diluted (1:5 or more depending on the stock concentration) in sterile PBS, and 2 μg per mouse in 50 μl was injected intramuscularly at 1 day before and at 1 day and 3 days after bleomycin instillation. Control buffer was made of the same volume of 50 mM sodium acetate and 1 mM EDTA solution and PBS. Mouse anti-IL-6 (MAB406, Clone #MP5-20F3, R&D Systems) or control IgG was reconstituted with sterile PBS. 250 μg per mouse in 250 μl sterile PBS was injected intraperitoneally to mice at 1 day before and at 1 day and 3 days after bleomycin instillation. Recombinant human IL-6 protein (Catalog 206-IL-010, R&D Systems) was reconstituted with sterile PBS containing 0.1% BSA. 200 ng/ml was used for organoid culture of human AEC2s.
Single-cell suspensions from human lungs were isolated as described (Barkauskas et al., 2013). The procedures of staining the cells for flow cytometry and data analysis were described previously (Barkauskas et al., 2013; Liang et al., 2012). […] Flow cytometry was performed using a FACSCanto II flow cytometer and FACSAria III sorter (BD Immunocytometry Systems, San Jose, Calif.) and analyzed using Flow Jo 9.6.4 software (Tree Star, Ashland, Oreg.). […]

Assay [1] deals with bleomycin-induced lung injury. The assay can be described thus: Bleomycin lung injury model with rIL-6 or anti-IL-6 administration. The class given is in vivo, mouse.
Text: Mice. Tlr4^−/− and Tlr2^−/− mice were obtained (Takeuchi et al., 1999; Kawai et al., 1999), Has2^flox/+ mice were generated using the Cre-loxP system (Li et al., 2011; Matsumoto et al., 2009), and SFTPC-Cre mice, SFTPC-CreER mice, SFTPC-GFP mice, and Rosa-Tomato^flox/flox mice were generated (Barkauskas et al., 2013; Chen et al., 2012; Eblaghie et al., 2006). All mice were backcrossed on the C57Bl/6J background for more than six generations. […] Has2^flox/flox homozygous mice were crossed with SFTPC-Cre^+ mice to generate SFTPC-Cre^+;Has2^flox/flox mice. Rosa-Tomato^flox/flox mice were crossed with SFTPC-CreER mice to generate SFTPC-CreER^+;Rosa-Tomato^flox/flox mice. Animals were randomly assigned to treatment groups, and they were age- and sex-matched. 8- to 12-week-old mice of both sexes (male:female ratio ˜1:1) were used in the bleomycin lung injury model. Animals for experiments were selected by genotype, and no blinding was performed.
Bleomycin instillation and BAL procedures were described previously (Dong et al., 2015; Lovgren et al., 2011). Under anesthesia, the trachea was surgically exposed. 1.25-5 U/kg bleomycin (Hospira, Lake Forest, Ill.) in 25 μl PBS was instilled into the mouse trachea with a 25-G needle inserted between the cartilaginous rings of the trachea. Control animals received saline alone. The tracheostomy site was sutured, and the animals were allowed to recover. Mice were euthanized at different time points, and lung tissue and BAL fluid were collected for experiments. 0.8-ml aliquots of PBS were used for lavage. Cell-free BAL fluid was stored in a −80° C. freezer for cytokine measurement.
Collagen contents in mouse lungs were measured using a conventional hydroxyproline method (Jiang et al., 2004). Lung tissues were vacuum-dried and hydrolyzed with 6 N hydrochloride acid at 120° C. overnight. Hydroxyproline content was expressed as ‘μg per lung’, unless specified otherwise. The ability of the assay to completely hydrolyze and recover hydroxyproline from collagen was confirmed using samples containing known amounts of purified collagen.
as §1
Single-cell suspensions from mouse lungs were isolated as described (Chen et al., 2012). Mouse lungs were perfused with 5 ml PBS and digested with elastase (4 U/ml; Worthington Biochemical Corporation) and DNase I (100 U/ml; Sigma) to obtain single-cell suspensions for flow cytometry. Primary antibodies to CD31, CD34, CD45, Sca-1, and CD24, and secondary antibody anti-streptavidin were all from eBioscience (San Diego, Calif.). Mouse anti-EpCAM (G8.8, catalog 118215) and anti-Ki67 (catalog 652403) were from BioLegend (San Diego, Calif.). 7-AAD was from BD Biosciences (San Diego, Calif.).
The procedures of staining the cells for flow cytometry and data analysis were described previously (Chen et al., 2012; Liang et al., 2012). In brief, cells were resuspended in Hank's balanced saline solution supplemented with 2% FBS (FBS), 10 mM HEPES, 0.1 mM EDTA, 100 IU/ml penicillin, 100 μg/ml streptomycin (HBSS+ buffer). […]

The mark [2] stands for this setting: bleomycin-treated Tlr4^−/− mice, rIL-6 vs control buffer, FIG. 10G.

Regarding `Cc1ccc(S(=O)(=O)OCC(=O)Nc2ccc(C(=O)O)c(O)c2)cc1` [S3I-201, reference compound], in the assay with CD24^−Sca-1^−AEC2s (STAT3 inhibitor 50 μM or 100 μM with IL-6 protein 100 ng/ml, FIG. 11C), the “rIL6-promoted colony formation of CD24^−Sca-1^−AEC2s” value is given as “abolished”.

B1: rIL-6: Recombinant mouse IL-6 protein (Catalog 406-ML/CF, R&D Systems), used for mouse AEC2s and in mice (protein, UniProt P08505 25-211, looked up)
Interleukin-6: FPTSQVRRGDFTEDTTPNRPVYTTSQVGGLITHVLWEIVEMRKELCNGNSDCMNNDDALAENNLKLPEIQRNDGCYQTGYNQEICLLKISSGLLEYHSYLEYMKNNLKDNKKDKARVLQRDTETLIHIFNQEVKDLHKIVLPTPISNALLTDKLESQKEWLRTKTIQFILKSLEEFLKVTLRSTRQT
Take B1: in the assay on human HTII-280^+AEC2s, the “CFEs of HTII-280^+AEC2s” value is on record as “markedly increased”. Besides, the “CFEs of CD24^−Sca-1^−AEC2s” value was “promoted” in the assay on CD24^−Sca-1^−AEC2s (AEC2s from bleomycin-treated SFTPC-Cre;Has2^flox/flox mice, rIL-6 100 ng/ml, FIG. 10F); “promoted” in the assay on CD24^−Sca-1^−AEC2s (AEC2s from bleomycin-treated Tlr4^−/− mice, rIL-6 100 ng/ml, FIG. 10E); “increased” in the assay on CD24^−Sca-1^−AEC2s (AEC2s from bleomycin-treated WT mice, dose-dependent, vs control IgG or medium, FIGS. 10C-D). Besides, the “hydroxyproline content in the lungs” value is listed as “lower” in assay [1] (Tlr4^−/− mice, bleomycin and rIL-6 vs bleomycin alone, FIG. 10H); “lower hydroxyproline content” in assay [1] (bleomycin-injured SFTPC-Cre;Has2^flox/flox mice, rIL-6 vs buffer, FIG. 10I). In addition, the AEC2 apoptosis entry in assay [1] (bleomycin day 7 Tlr4^−/− mice, rIL-6 vs buffer, FIG. 11D) is recorded as “did not affect”. Also, the “inflammatory cell infiltration (BAL cell counts)” value in assay [1] (bleomycin day 7 Tlr4^−/− mice, rIL-6 vs buffer, FIG. 11E) is recorded as “did not affect”. In addition, the survival entry in assay [1] (bleomycin-injured Tlr4^−/− mice, rIL-6 vs buffer, 21 days, FIG. 11F) was “increased survival”. The survival / mortality result in assay [1] (bleomycin-injured WT mice, anti-IL-6 250 μg per mouse i.p. vs control IgG (FIG. 11G), rIL-6 vs bleomycin alone (data not shown)) was “did not alter”. Moreover, the hydroxyproline levels entry in assay [1] (bleomycin-injured WT mice, anti-IL-6 vs control IgG, rIL-6 vs bleomycin alone, data not shown) was “did not alter”. In assay [1] (bleomycin-treated Tlr4^−/− mice, rIL-6 2 μg per mouse i.m. day −1, 1, 3, vs control buffer, FIG. 10G), the “recovery of CD24^−Sca-1^−AEC2s” value is “more recovery”. Also, the “Ki67 staining of CD24^−Sca-1^−AEC2s” value in assay [1] (setting [2]) was “greater Ki67 staining”. Moreover, the “concentration of total BALF proteins” value in assay [1] (setting [2]) is given as “lower concentration”.
